Data: patent US12570711B2, “Platforms for co-stimulation, novel car designs and other enhancements for adoptive cellular therapy” (Angeles Therapeutics, Inc., priority 2017, dated 2026)

Target: T1, CD19 (Homo sapiens, UniProt P15391)
T1 construct: endogenous in cells; host or cells: RAJI cells in vitro
T1 sequence (P15391 20-556): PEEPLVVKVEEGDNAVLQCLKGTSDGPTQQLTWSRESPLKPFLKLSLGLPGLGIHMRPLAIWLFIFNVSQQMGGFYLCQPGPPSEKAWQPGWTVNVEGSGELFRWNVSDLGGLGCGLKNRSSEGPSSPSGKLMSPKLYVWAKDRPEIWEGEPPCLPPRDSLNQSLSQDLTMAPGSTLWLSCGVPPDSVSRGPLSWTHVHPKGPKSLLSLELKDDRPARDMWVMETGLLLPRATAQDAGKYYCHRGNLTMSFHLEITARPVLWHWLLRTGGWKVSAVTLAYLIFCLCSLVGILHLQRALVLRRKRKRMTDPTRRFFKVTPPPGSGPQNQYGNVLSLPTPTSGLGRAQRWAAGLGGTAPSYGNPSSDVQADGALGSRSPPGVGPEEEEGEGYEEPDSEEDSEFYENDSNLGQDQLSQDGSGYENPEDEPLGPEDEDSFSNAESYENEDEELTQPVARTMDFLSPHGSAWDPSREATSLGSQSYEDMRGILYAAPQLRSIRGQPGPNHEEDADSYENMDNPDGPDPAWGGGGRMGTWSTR
Assay: Jurkat-NFAT-EGFP (J-N-G) reporter: EGFP induction upon co-culture with RAJI cells
Assay type: cell-based
Details: co-culture with CD19+ve RAJI cells, compared to wild-type EF1α promoter
Source text: Jurkat cell line (clone E6-1) engineered with a NFAT-dependent EGFP (or GFP) reporter gene was a gift from Dr. Arthur Weiss at University of California San Francisco and have been described to study CAR-signaling ((Wu, C Y et al., Science 350:293-302, 2015). Jurkat cells were maintained in RPMI-1640 medium supplemented with 10% FBS, penicillin and streptomycin.
Use of strong viral promoters in adoptive cellular therapy applications carries the risk of activation of downstream oncogenes and development of cancer. As such, human Elongation Factor 1α (EF1α) promoter is frequently used in adoptive cellular therapy applications as it provides strong expression and is human in origin. A limitation of EF1α promoter, however, is its relatively large size. Although a mini-EF1α promoter has been described, it is much weaker as compared to the EF1α promoter. To determine whether an internal deletion in the EF1α promoter would allow shortening of its length while preserving its promoter strength, a SacII fragment was deleted from the EF1α promoter. […] The vectors also co-expressed EGFP and blasticidin resistance gene via 2A linkers. Lentiviruses were generated in 293FT cells and used to infect J-N-G cells.

B1: EF1α-D-SacII promoter: EF1α promoter from which an internal SacII fragment was deleted (nucleic acid)
DNA: GTGAGGCTCCGGTGCCCGTCAGTGGGCAGAGCGCACATCGCCCACAGTCCCCGAGAAGTTGGGGGGAGGGGTCGGCAATTGAACCGGTGCCTAGAGAAGGTGGCGCGGGGTAAACTGGGAAAGTGATGTCGTGTACTGGCTCCGCCTTTTTCCCGAGGGTGGGGGAGAACCGTATATAAGTGCAGTAGTCGCCGTGAACGTTCTTTTTCGCAACGGGTTTGCCGCCAGAACACAGGTAAGTGCCGTGTGTGGTTCCCGCGGGCGGCGACGGGGCCCGTGCGTCCCAGCGCACATGTTCGGCGAGGCGGGGCCTGCGAGCGCGGCCACCGAGAATCGGACGGGGGTAGTCTCAAGCTGGCCGGCCTGCTCTGGTGCCTGGCCTCGCGCCGCCGTGTATCGCCCCGCCCTGGGCGGCAAGGCTGGCCCGGTCGGCACCAGTTGCGTGAGCGGAAAGATGGCCGCTTCCCGGCCCTGCTGCAGGGAGCTCAAAATGGAGGACGCGGCGCTCGGGAGAGCGGGCGGGTGAGTCACCCACACAAAGGAAAAGGGCCTTTCCGTCCTCAGCCGTCGCTTCATGTGACTCCACGGAGTACCGGGCGCCGTCCAGGCACCTCGATTAGTTCTCGACCTTTTGGAGTACGTCGTCTTTAGGTTGGGGGGAGGGGTTTTATGCGATGGAGTTTCCCCACACTGAGTGGGTGGAGACTGAAGTTAGGCCAGCTTGGCACTTGATGTAATTCTCCTTGGAATTTGCCCTTTTTGAGTTTGGATCTTGGTTCATTCTCAAGCCTCAGACAGTGGTTCAAAGTTTTTTTCTTCCATTTCAGGTGTCGTGA
In the case of B1, the “induction of EGFP expression by FMC63-BBz CAR” value is reported as “Near equivalent inducton of EGFP expression”.
